From publication PMC3272785

Test system: Nc1nc(=O)[nH]cc1F
Assay: steady-state kinetics
Assay type: biochemical, Saccharomyces cerevisiae
Conditions: Zn2+

| Substance | Km [mM] | kcat [s⁻¹] | kcat/Km [M⁻¹ s⁻¹] |
| --- | --- | --- | --- |
| yeast cytosine deaminase (yCD) (Saccharomyces cerevisiae S288C; E64D) | 19 ± 6 | 0.0051 ± 0.001 | 0.26 |
| yeast cytosine deaminase (yCD) (Saccharomyces cerevisiae S288C; E64A) | 33 ± 6 | 7.3e-05 ± 6e-06 | 0.0022 |
